Laboratory results published in PMC8041999.

B1: FLAG-tagged KIR2DL3, full-length, wild type, on 293T cells [human] / HLA-C*03:04-GL9 tetramer (phycoerythrin-conjugated) [modified: biotin (enzymatically, with biotin ligase)] [human] (parent)
chain 1: HEGVHRKPSLLAHPGPLVKSEETVILQCWSDVRFQHFLLHREGKFKDTLHLIGEHHDGVSKANFSIGPMMQDLAGTYRCYGSVTHSPYQLSAPSDPLDIVITGLYEKPSLSAQPGPTVLAGESVTLSCSSRSSYDMYHLSREGEAHERRFSAGPKVNGTFQADFPLGPATHGGTYRCFGSFRDSPYEWSNSSDPLLVSVTGNPSNSWPSPTEPSSETGNPRHLHVLIGTSVVIILFILLLFFLLHRWCCNKKNAVVMDQEPAGNRTVNREDSDEQDPQEVTYAQLNHCVFTQRKITRPSQRPKTPPTDIIVYTELPNAEP
chain 2: not shown
chain 3: not shown
chain 4: GAVDPLLAL
B2: FLAG-tagged KIR2DL2, full-length, wild type, on 293T cells [human] / HLA-C*07:02-RL9 tetramer (phycoerythrin-conjugated) [modified: biotin (enzymatically, with biotin ligase)] [human | not stated] (parent)
chain 1: HEGVHRKPSLLAHPGRLVKSEETVILQCWSDVRFEHFLLHREGKFKDTLHLIGEHHDGVSKANFSIGPMMQDLAGTYRCYGSVTHSPYQLSAPSDPLDIVITGLYEKPSLSAQPGPTVLAGESVTLSCSSRSSYDMYHLSREGEAHECRFSAGPKVNGTFQADFPLGPATHGGTYRCFGSFRDSPYEWSNSSDPLLVSVIGNPSNSWPSPTEPSSKTGNPRHLHILIGTSVVIILFILLFFLLHRWCSNKKNAAVMDQESAGNRTANSEDSDEQDPQEVTYTQLNHCVFTQRKITRPSQRPKTPPTDIIVYAELPNAESRSKVVSCP
chain 2: not shown
chain 3: not shown
chain 4: RYRPGTVAL
B3: FLAG-tagged KIR2DL2, full-length, wild type, on 293T cells [human] / HLA-C*03:04-GL9 tetramer (phycoerythrin-conjugated) [modified: biotin (enzymatically, with biotin ligase)] [human] (parent)
chain 1: B2 chain 1
chain 2: not shown
chain 3: not shown
chain 4: GAVDPLLAL
B4: FLAG-tagged KIR2DL3, full-length, wild type, on 293T cells [human] / HLA-C*07:02-RL9 tetramer (phycoerythrin-conjugated) [modified: biotin (enzymatically, with biotin ligase)] [human | not stated] (parent)
chain 1: B1 chain 1
chain 2: not shown
chain 3: not shown
chain 4: RYRPGTVAL

Variants of: B1
Test: flow cytometry, HLA tetramer staining of transfected 293T cells
Details: with HLA-C*03:04-GL9 tetramer (phycoerythrin-conjugated) [modified: biotin (enzymatically, with biotin ligase)] [human]; percentage tetramer+ normalised to percentage FLAG+; read off a plot

ratio to parent	Variant
0.07	chain 1 F181A

Variants of: B2
Test: as above
Details: with HLA-C*07:02-RL9 tetramer (phycoerythrin-conjugated) [modified: biotin (enzymatically, with biotin ligase)] [human | not stated]; percentage tetramer+ normalised to percentage FLAG+; read off a plot

ratio to parent	Variant
0.02	chain 1 F181A

Variants of: B3
Test: as above
Details: with HLA-C*03:04-GL9 tetramer (phycoerythrin-conjugated) [modified: biotin (enzymatically, with biotin ligase)] [human]; percentage tetramer+ normalised to percentage FLAG+; read off a plot

ratio to parent	Variant
0.05	chain 1 F181A

Variants of: B4
Test: as above
Details: with HLA-C*07:02-RL9 tetramer (phycoerythrin-conjugated) [modified: biotin (enzymatically, with biotin ligase)] [human | not stated]; percentage tetramer+ normalised to percentage FLAG+; read off a plot

ratio to parent	Variant
0.06	chain 1 F181A
